{"source": "patent US20220357348A1", "about": "(FARON PHARMACEUTICALS, published 2022)", "binders": {"B1": {"name": "humanized anti-Clever-1 antibody FP-1305 (DSM ACC3361) (antibody, human IgG4 S228P, kappa, V domains shown)", "VH": "QVTLKESGPTLVKPTQTLTLTCSFSGFSLSTSGMGIGWIRQPPGKALEWLAHIWWDDDKRYNPALKSRLTISKDTSKNQVVLTMTNMDPVDTATYYCARHYGYDPYYAMDYWGQGTLVTVSS", "VL": "EIVLTQSPGTLSLSPGERATLSCTASSSVSSSYLHWYQQKPGKAPKLLIYRTSNLASGVPSRFSGSGSGTDYTLTISSLQPEDFATYYCHQYHRSPPTFGQGTKLEIKR", "notes": "Its isotype control is HuIgG4 S241P L248E; also called bexmarilimab"}}, "target": "T1, human Clever-1 (Common Lymphatic Endothelial and Vascular Endothelial Receptor-1) expressed on KG-1 cells (human, UniProt Q9NY15 26-2570)", "T1 construct": "whole, on cells; also called Stabilin-1", "T1 sequence (Q9NY15 26-2570)": "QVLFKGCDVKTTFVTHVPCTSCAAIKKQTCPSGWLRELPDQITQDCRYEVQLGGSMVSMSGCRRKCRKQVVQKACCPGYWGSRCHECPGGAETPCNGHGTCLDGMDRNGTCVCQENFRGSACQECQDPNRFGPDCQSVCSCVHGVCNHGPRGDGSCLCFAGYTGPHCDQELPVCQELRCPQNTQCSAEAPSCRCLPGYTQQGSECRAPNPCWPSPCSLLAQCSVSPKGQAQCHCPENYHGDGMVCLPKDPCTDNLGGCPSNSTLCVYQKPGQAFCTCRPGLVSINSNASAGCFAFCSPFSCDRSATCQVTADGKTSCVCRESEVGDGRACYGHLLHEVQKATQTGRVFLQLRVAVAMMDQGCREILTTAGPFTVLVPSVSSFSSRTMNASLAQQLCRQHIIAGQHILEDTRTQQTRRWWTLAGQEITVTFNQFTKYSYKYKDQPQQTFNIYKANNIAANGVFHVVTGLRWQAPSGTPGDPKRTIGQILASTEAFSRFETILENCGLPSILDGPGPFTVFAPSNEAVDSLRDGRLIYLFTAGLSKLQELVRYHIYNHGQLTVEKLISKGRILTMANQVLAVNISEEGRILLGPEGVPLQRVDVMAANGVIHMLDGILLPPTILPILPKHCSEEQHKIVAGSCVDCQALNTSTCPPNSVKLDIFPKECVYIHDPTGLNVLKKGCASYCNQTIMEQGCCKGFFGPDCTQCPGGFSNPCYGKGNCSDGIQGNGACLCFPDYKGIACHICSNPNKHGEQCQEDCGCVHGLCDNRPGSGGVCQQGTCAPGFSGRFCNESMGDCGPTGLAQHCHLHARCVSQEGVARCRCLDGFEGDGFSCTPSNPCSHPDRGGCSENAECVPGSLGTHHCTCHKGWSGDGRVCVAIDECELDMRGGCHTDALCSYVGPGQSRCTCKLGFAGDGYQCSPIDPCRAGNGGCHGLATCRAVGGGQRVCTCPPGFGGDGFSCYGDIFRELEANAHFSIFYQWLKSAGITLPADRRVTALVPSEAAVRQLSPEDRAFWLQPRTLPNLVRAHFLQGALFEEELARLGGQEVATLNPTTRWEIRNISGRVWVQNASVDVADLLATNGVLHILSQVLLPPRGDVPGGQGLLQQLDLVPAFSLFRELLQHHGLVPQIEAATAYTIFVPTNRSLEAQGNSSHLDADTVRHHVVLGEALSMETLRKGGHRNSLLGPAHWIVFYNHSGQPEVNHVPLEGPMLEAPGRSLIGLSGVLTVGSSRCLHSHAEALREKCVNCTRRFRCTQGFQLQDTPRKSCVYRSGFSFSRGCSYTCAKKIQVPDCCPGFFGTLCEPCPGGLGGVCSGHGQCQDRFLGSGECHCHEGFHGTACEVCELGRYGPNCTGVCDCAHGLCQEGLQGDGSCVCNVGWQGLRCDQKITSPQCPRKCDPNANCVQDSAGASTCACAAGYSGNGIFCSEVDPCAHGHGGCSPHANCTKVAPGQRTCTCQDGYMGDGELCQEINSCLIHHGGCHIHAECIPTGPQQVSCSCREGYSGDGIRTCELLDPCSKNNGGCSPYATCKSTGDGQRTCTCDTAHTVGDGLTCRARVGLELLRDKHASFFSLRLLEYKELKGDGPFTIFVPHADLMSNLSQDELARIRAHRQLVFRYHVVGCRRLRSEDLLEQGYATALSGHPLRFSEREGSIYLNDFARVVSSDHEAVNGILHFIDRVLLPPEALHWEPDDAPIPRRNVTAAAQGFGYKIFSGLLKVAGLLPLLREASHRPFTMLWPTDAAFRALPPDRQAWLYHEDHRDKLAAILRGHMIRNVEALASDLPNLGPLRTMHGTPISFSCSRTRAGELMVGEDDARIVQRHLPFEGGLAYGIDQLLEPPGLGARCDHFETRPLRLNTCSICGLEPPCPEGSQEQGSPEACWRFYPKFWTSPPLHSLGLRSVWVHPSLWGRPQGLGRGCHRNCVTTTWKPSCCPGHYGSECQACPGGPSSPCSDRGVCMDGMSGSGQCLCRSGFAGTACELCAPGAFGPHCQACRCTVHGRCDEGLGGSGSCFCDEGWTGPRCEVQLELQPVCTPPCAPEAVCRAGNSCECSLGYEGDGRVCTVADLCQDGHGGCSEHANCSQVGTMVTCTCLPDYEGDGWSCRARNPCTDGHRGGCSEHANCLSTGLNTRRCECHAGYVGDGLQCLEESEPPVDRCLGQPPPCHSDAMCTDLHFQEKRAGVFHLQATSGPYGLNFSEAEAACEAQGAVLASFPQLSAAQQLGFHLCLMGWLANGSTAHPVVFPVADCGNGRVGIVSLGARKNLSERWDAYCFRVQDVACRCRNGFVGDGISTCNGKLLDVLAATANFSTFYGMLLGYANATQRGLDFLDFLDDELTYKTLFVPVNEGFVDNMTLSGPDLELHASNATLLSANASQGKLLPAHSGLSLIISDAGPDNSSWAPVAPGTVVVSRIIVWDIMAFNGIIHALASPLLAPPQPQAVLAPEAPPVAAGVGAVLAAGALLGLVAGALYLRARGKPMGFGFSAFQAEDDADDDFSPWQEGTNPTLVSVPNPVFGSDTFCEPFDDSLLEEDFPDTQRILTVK", "experiment": "flow cytometry on KG-1 cells, 4 C, titration 10-0.014 µg/mL, AlexaFluor 647 anti-HuIgG secondary", "protocol": "Excess primary antibody was removed and the cells were then incubated for a further 30 minutes at 4° C. with either an AlexaFluor 647 labelled anti-HulgG or PE labelled anti-rat IgG antibody (ThermoFisher Scientific, Loughborough, UK) at 10 μg/mL. The unbound secondary antibody was washed away, and the cells fixed with BD CellFix (BD Biosciences, Oxford, UK) before analysis. Samples were acquired on an Attune NxT focussing cytometer equipped with a blue and red laser (ThermoFisher Scientific, Loughborough, UK) using the BL2 and RL1 channels for PE and AlexaFluor 647 dyes, respectively. The MFI values were plotted against the antibody concentration. […] The MFI in the absence of primary antibody is represented by a dotted line."}
{"binder": "B1", "values": [{"measurement": "binding result", "value": "binds"}]}
